This series has as its system Nc1ccn([C@@H]2O[C@H](CO)[C@@H](O)C2(F)F)c(=O)n1. In words: cells, lysate or membranes named. The conditions noted are these: other: ATP donor, 10 nM dCK, no masitinib.

In general, Km refers to the substrate concentration at which the rate is half of its maximum.

human deoxycytidine kinase (dCK) (Homo sapiens), sequence (chain, as listed by the source): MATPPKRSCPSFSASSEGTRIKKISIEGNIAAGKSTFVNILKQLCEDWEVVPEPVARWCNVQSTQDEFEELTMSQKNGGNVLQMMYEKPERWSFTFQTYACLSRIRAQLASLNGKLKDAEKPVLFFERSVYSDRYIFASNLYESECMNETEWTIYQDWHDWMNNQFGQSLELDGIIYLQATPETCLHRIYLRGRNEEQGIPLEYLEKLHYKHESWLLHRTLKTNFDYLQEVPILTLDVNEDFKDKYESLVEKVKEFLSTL

As to “human deoxycytidine kinase (dCK) (Homo sapiens)”, the Km came to 1 ± 0.3 µM.
